To fix the notation:
B1: Histone H1t, residues 44 to 112; numbered along this chain, P22492 (parent)
chain: VSKLITEALSVSQERVGMSLVALKKALAAAGYDVEKNNSRIKLSLKSLVNKGILVQTRGTGASGSFKLS

± gives the uncertainty stated by the source.

Variants of B1 are the subject of the data set. The experiment in a line: abundance fitness (aPCA) (normalised: wild type 0, dead -1); higher = more abundant; growth selection in yeast, the domain comes from the species named. Particulars: Homo sapiens.
On to VSKLITEALSVSQERVGMSLVALKKALAAAGYDVEKNISRIKLSLKSLVNKGILVQTRGTGASGSFKLS [N38I], for which the abundance fitness is -0.162 ± 0.34. The same measure for VSKLITEALSVSQERVGMSLVALKKALAAAGYDVEKNASRIKLSLKSLVNKGILVQTRGTGASGSFKLS [N38A]: 0.106 ± 0.087.

As to VSKLITEALSVSQERVGMSLVALKKALAAAGYDVEKNTSRIKLSLKSLVNKGILVQTRGTGASGSFKLS [N38T], the abundance fitness stood at 0.109 ± 0.14. The same measure for VSKLITEALSVSQERVGMSLVALKKALAAAGYDVEKNWSRIKLSLKSLVNKGILVQTRGTGASGSFKLS [N38W]: 0.105 ± 0.22; for VSKLITEALSVSQERVGMSLVALKKALAAAGYDVEKNKSRIKLSLKSLVNKGILVQTRGTGASGSFKLS [N38K]: -0.124 ± 0.36; for VSKLITEALSVSQERVGMSLVALKKALAAAGYDVEKNSSRIKLSLKSLVNKGILVQTRGTGASGSFKLS [N38S]: 0.044 ± 0.09. As to VSKLITEALSVSQERVGMSLVALKKALAAAGYDVEKNNSRIELSLKSLVNKGILVQTRGTGASGSFKLS [K42E], the abundance fitness came out at 0.182 ± 0.038.

As to VSKLITEALSVSQERVGMSLVALKKALAAAGYDVEKNNSRIMLSLKSLVNKGILVQTRGTGASGSFKLS [K42M], the abundance fitness stood at 0.14 ± 0.05. Take VSKLITEALSVSQERVGMSLVALKKALAAAGYDVEKNNSRILLSLKSLVNKGILVQTRGTGASGSFKLS [K42L]: the abundance fitness was 0.048 ± 0.031.

As to VSKLITEALSVSQERVGMSLVALKKALAAAGYDVEKNNSRINLSLKSLVNKGILVQTRGTGASGSFKLS [K42N], the abundance fitness was -0.379 ± 0.19. The same measure for VSKLITEALSVSQERVGMSLVALKKALAAAGYDVEKNNSRIFLSLKSLVNKGILVQTRGTGASGSFKLS [K42F]: -0.413 ± 0.12. With VSKLITEALSVSQERVGMSLVALKKALAAAGYDVEKNNSRIHLSLKSLVNKGILVQTRGTGASGSFKLS [K42H], the abundance fitness is -0.158 ± 0.073. Take VSKLITEALSVSQERVGMSLVALKKALAAAGYDVEKNNSRIALSLKSLVNKGILVQTRGTGASGSFKLS [K42A]: the abundance fitness was -0.098 ± 0.025. Turning to VSKLITEALSVSQERVGMSLVALKKALAAAGYDVEKNNSRIPLSLKSLVNKGILVQTRGTGASGSFKLS [K42P], the abundance fitness was -0.682 ± 0.029. The figure for VSKLITEALSVSQERVGMSLVALKKALAAAGYDVEKNNSRIDLSLKSLVNKGILVQTRGTGASGSFKLS [K42D] is -0.096 ± 0.065; for VSKLITEALSVSQERVGMSLVALKKALAAAGYDVEKNNSRIGLSLKSLVNKGILVQTRGTGASGSFKLS [K42G] it is -0.188 ± 0.039.

As for VSKLITEALSVSQERVGMSLVALKKALAAAGYDVEKNNSRIILSLKSLVNKGILVQTRGTGASGSFKLS [K42I], the abundance fitness came to 0.094 ± 0.12. On to VSKLITEALSVSQERVGMSLVALKKALAAAGYDVEKVNSRIKLSLKSLVNKGILVQTRGTGASGSFKLS [N37V], for which the abundance fitness is -0.161 ± 0.17. The figure for VSKLITEALSVSQERVGMSLVALKKALAAAGYDVEKSNSRIKLSLKSLVNKGILVQTRGTGASGSFKLS [N37S] is -0.013 ± 0.28; for VSKLITEALSVSQERVGMSLVALKKALAAAGYDVEKWNSRIKLSLKSLVNKGILVQTRGTGASGSFKLS [N37W] it is -0.083 ± 0.38; for VSKLITEALSVSQERVGMSLVALKKALAAAGYDVEKYNSRIKLSLKSLVNKGILVQTRGTGASGSFKLS [N37Y] it is -0.289 ± 0.38.

For the variant VSKLITEALSVSQERVGMSLVALKKALAAAGYDVEKTNSRIKLSLKSLVNKGILVQTRGTGASGSFKLS [N37T], the abundance fitness is -0.522 ± 0.33. The figure for VSKLITEALSVSQERVGMSLVALKKALAAAGYDVEKNNARIKLSLKSLVNKGILVQTRGTGASGSFKLS [S39A] is -0.005 ± 0.04; for VSKLITEALSVSQERVGMSLVALKKALAAAGYDVEKNNNRIKLSLKSLVNKGILVQTRGTGASGSFKLS [S39N] it is 0.075 ± 0.15.

As for VSKLITEALSVSQERVGMSLVALKKALAAAGYDVEKNNHRIKLSLKSLVNKGILVQTRGTGASGSFKLS [S39H], the abundance fitness was -0.089 ± 0.085. The same measure for VSKLITEALSVSQERVGMSLVALKKALAAAGYDVEKNNPRIKLSLKSLVNKGILVQTRGTGASGSFKLS [S39P]: -0.445 ± 0.045; for VSKLITEALSVSQERVGMSLVALKKALAAAGYDVEKNNMRIKLSLKSLVNKGILVQTRGTGASGSFKLS [S39M]: -0.228 ± 0.045; for VSKLITEALSVSQERVGMSLVALKKALAAAGYDVEKNNDRIKLSLKSLVNKGILVQTRGTGASGSFKLS [S39D]: -0.013 ± 0.11. The figure for VSKLITEALSVSQERVGMSLVALKKALAAAGYDVEKNNKRIKLSLKSLVNKGILVQTRGTGASGSFKLS [S39K] is -0.001 ± 0.045; for VSKLITEALSVSQERVGMSLVALKKALAAAGYDVEKNNQRIKLSLKSLVNKGILVQTRGTGASGSFKLS [S39Q] it is 0.075 ± 0.04; for VSKLITEALSVSQERVGMSLVALKKALAAAGYDVEKNNYRIKLSLKSLVNKGILVQTRGTGASGSFKLS [S39Y] it is -0.557 ± 0.23.

VSKLITEALSVSQERVGMSLVALKKALAAAGYDVEKNNERIKLSLKSLVNKGILVQTRGTGASGSFKLS [S39E]: the abundance fitness was 0.148 ± 0.052.

In the case of VSKLITEALSVSQERVGMSLVALKKALAAAGYDVEKNNGRIKLSLKSLVNKGILVQTRGTGASGSFKLS [S39G], the abundance fitness is -0.087 ± 0.044. The figure for VSKLITEALSVSQERVGMSLVALKKALAAAGYDVEKNNVRIKLSLKSLVNKGILVQTRGTGASGSFKLS [S39V] is -0.539 ± 0.059. Turning to VSKLITEALSVSQERVGMSLVALKKALAAAGYDVEKNNLRIKLSLKSLVNKGILVQTRGTGASGSFKLS [S39L], the abundance fitness is -0.317 ± 0.028. The figure for VSKLITEALSVSQERVGMSLVALKKALAAAGYDVEKNNRRIKLSLKSLVNKGILVQTRGTGASGSFKLS [S39R] is -0.327 ± 0.049. Regarding VSKLITEALSVSQERVGMSLVALKKALAAAGYDVEKNNWRIKLSLKSLVNKGILVQTRGTGASGSFKLS [S39W], the abundance fitness was -0.472 ± 0.072. The figure for VSKLITEALSVSQERVGMSLVALKKALAAAGYDVEKNNFRIKLSLKSLVNKGILVQTRGTGASGSFKLS [S39F] is -0.594 ± 0.067. The same measure for VSKLITEALSVSQERVGMSLVALKKALAAAGYDVEKNNCRIKLSLKSLVNKGILVQTRGTGASGSFKLS [S39C]: -0.675 ± 0.22.

These data come from the Human Domainome abundance scans (Beltran et al. 2025).
